Experimental data from patent US20220356267A1.

Columns and labels:
[1] = molecular target: recombinant human CD73 protein (ecto-5'-nucleotidase), expressed by the applicant, C-terminal 6x His tag (human) (UniProt P21589); assay: cell-based or functional assay
[2] = molecular target: CD73 on A549 cells (UniProt P21589); assay: cell-based or functional assay
[3] = molecular target: recombinant human CD73 protein (ecto-5'-nucleotidase), expressed by the applicant, C-terminal 6x His tag (human) (UniProt P21589); assay: SPR, Biacore T200, antibody captured, human CD73 injected, 25 °C, 1:1 fit

Q: Which EC50 (µg/mL), Biochemical level, inhibition of the enzyme activity of CD73 [1] does the source give for MEDI-9447 (antibody) here?
A: The EC50 (µg/mL), Biochemical level, inhibition of the enzyme activity of CD73 was 0.188 µg/mL.

Q: What about the EC50 (µg/mL), Cell level (A549 cells), inhibition of the enzyme activity of CD73 [2] of the same substance?
A: Its EC50 (µg/mL), Cell level (A549 cells), inhibition of the enzyme activity of CD73 is 0.113 µg/mL.

Q: And the Kd [3]?
A: The Kd was 0.107 nM.

Q: What about the koff [3] of the same substance?
A: Its koff is 6.9e-05 s⁻¹.

Q: And the kon [3]?
A: Its kon is 647000 M⁻¹ s⁻¹.
